Results published in PMC5153404, “Analysis of the Interaction between Globular Head Modules of Human C1q and Its Candidate Receptor gC1qR” (Frontiers in Immunology, 2016).

Molecular target: T1, Human C1q (human, UniProt P02745 23-245; P02746 28-253; P02747 29-245)
T1 construct: C1q A chain, human, from plasma; C1q B chain, human, from plasma; C1q C chain, human, from plasma; 18 polypeptides (6A, 6B, 6C), 460 kDa, as the introduction says; also called full-length C1q; source: purified from human plasma (IgG-Sepharose, HiTrap Protein G); copies: 6 + 6 + 6
T1 sequence (P02745 23-245, chain 1 of 3): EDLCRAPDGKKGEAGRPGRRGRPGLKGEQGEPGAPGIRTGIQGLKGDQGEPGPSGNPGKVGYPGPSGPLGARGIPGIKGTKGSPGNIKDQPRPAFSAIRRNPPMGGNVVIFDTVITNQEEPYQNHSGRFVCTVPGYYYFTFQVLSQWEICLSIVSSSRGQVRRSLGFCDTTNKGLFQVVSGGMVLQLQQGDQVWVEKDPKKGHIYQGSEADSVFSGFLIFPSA
T1 sequence (P02746 28-253, chain 2 of 3): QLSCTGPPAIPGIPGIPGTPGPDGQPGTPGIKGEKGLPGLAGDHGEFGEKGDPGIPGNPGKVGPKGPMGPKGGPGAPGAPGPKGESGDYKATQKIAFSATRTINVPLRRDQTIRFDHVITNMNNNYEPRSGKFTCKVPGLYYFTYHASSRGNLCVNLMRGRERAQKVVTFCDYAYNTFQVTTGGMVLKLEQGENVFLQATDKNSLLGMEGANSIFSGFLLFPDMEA
T1 sequence (P02747 29-245, chain 3 of 3): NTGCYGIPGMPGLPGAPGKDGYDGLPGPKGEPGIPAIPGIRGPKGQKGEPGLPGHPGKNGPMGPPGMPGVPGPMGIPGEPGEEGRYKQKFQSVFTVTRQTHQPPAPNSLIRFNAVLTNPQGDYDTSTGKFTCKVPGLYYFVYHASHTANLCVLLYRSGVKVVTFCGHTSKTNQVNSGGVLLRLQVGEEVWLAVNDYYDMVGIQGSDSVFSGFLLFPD
Assay: ELISA; human C1q coated on wells (5, 2.5, 1.25, 0.625 μg/well); 2.5 μg gC1qR in 50 mM Tris-HCl pH 8.0, 100 mM NaCl, 5 mM CaCl2; 1 h at 37°C, then 1 h at 4°C; detected with anti-gC1qR polyclonal antibody and Protein A-HRP
Details: both partners purified

binding result: binds
B1: Recombinant mature human gC1qR (residues 74-282) (receptor, UniProt Q07021 74-282, looked up)
chain: LHTDGDKAFVDFLSDEIKEERKIQKHKTLPKMSGGWELELNGTEAKLVRKVAGEKITVTFNINNSIPPTFDGEEEPSQGQKVEEQEPELTSTPNFVVEVIKNDDGKKALVLDCHYPEDEVGQEDEAESDIFSIREVSFQSTGESEWKDTNYTLNTDSLDWALYDHLMDFLADRGVDNTFADELVELSTALEHQEYITFLEDLKSFVKSQ
